The text below walks through data of paper PMC9116965 (iScience, 2022).

Bounds are passed on as bounds.

The experiment addresses SARS-CoV-2 Omicron RBD protein (SARS-CoV-2 Omicron (BA.1), S371L | S373P | S375F). The experiment in a line: SPR.

B1: STS165 (full-length IgG form) (antibody, V domains shown)
VH: EVQLVESGGGVVRPGGSLRLSCAASGFTFDDYGMSWVRQAPGKGLEWVSGINWNGGSTGYADSVKGRFTISRDNAKNSLYLQMNSLRAEDTALYHCARVGYCGGDCYSLSLAGFPDYWGQGTLVTVSS
VL: not shown
As for B1, the “fold decrease of binding affinity against WT RBD” value came out at 3 fold.

B2: STS165 Fab form (Fab, V domains shown)
VH: EVQLVESGGGVVRPGGSLRLSCAASGFTFDDYGMSWVRQAPGKGLEWVSGINWNGGSTGYADSVKGRFTISRDNAKNSLYLQMNSLRAEDTALYHCARVGYCGGDCYSLSLAGFPDYWGQGTLVTVSS
VL: not shown
In the case of B2, the “fold decrease of binding affinity against the IgG form” value is above 50 fold.
